Assay results taken from the RNAGym collection of RNA variant scans (doi:10.1073/pnas.2313332121).

B1: TPR t1 (parent)
chain: GACCAAUCUGCCCUCAGAGCUCGAGAACAUCUUCGGAUGCAGAGGAGGCAGGCUUCGGUGGCGCGAUAGCGCCAACGUCCUCAACCUCCAAUGCAUCCCACCACAUGAUGAUGCCUGAAGAGCCUUGGUUUUUUG

Variants of: B1
Assay: polymerase ribozyme fitness, log enrichment relative to wild type (log ratio); higher = more active; in vitro selection for triplet polymerase activity
Summary of the method: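 Each subunit of a heterodimeric triplet polymerase ribozyme was represented by a PCR-built, transcribed mutant library that underwent triplicate single-round in vitro selection with frozen incubation at −7 °C. Extended constructs were recovered by gel excision, streptavidin-bead capture and RT-PCR, and Illumina sequencing of input and output libraries kept genotypes with ≥10 input reads and ≥1 read per output. Fitness is the logarithm of genotype enrichment relative to wild-type enrichment, from inverse-variance-weighted replicate averages, with a logarithm base of 2.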

| Variant | polymerase ribozyme fitness (log ratio) |
| --- | --- |
| GACCAAUCUGCCCUCAGAGCUCGAGAACAUCUUCGGAUGCAGAGGAGGCAGGCUUCGGUGGCGCGAUAGCGCCAACGUCCUCAUCCUCCAAUGCAUCCCACCACAUGAUGAUGCCUGAAGAGCCUUGGUUUUAUG [A84U U133A] | -0.823 |
| GACCAAUCUGCCCUCAGAGCUCGAGAACAUCUUCGGAUGCAGAGGAGGCAGGCUUCGGUGGCGCGAUAGCGCCAACGUCCUCAAGCUCCAAUGCAUCCCACCACAUGAUGAUGCGUGAAGAGCCUUGGUUUAUUG [C85G C115G U132A] | -2.4 |
| GACCAAUCUGCCCUCAGAGCUCGAGAACAUCUUCGGAUGCAGAGGAGGCAGGCUUCGGUGGCGCGAUAGCGCCAACGUCCUCAAGCUCCAAUGCAUCCCACCACAUGAUGACGCCUGAAGAGCCUUGGUUUUUUG [C85G U112C] | 0.41 |
| GACCAAUCUGCCCUCAGAGCUCGAGAACAUCUUCGGAUGCAGAGGAGGCAGGCUUCGGUGGCGCGAUAGCGCCAACGUCCUCAAGCUCCAAUGCAUCCCACCACAUGAUGAGGCCUGAAGAGCCUUGGUUUUUUG [C85G U112G] | -1.15 |
| GACCAAUCUGCCCUCAGAGCUCGAGAACAUCUUCGGAUGCAGAGGAGGCAGGCUUCGGUGGCGCGAUAGCGCCAACGUCCUCAAACUCCAAUGAAUCCCACCACAUGAUGUUGCCUGAAGAGCCUUGGUUUUUUG [C85A C94A A111U] | -5.51 |
| GACCAAUCUGCCCUCAGAGCUCGAGAACAUCUUCGGAUGCAGAGGAGGCAGGCUUCGGUGGCGCGAUAGCGCCAACGUCCUCAAGAUCCAAUGCAUCCCACCACAUGAUGAUGCCUGAAGAGCCUUGGUUUUUUG [C85G C86A] | -1.69 |
| GACCAAUCUGCCCUCAGAGCUCGAGAACAUCUUCGGAUGCAGAGGAGGCAGGCUUCGGUGGCGCGAUAGCGCCAACGUCCUCAAGCUCCAAUGCAUCCCACCACAUGAUGAUGCCUGAAGAGCGUGGGUUUUUUG [C85G C124G U126G] | -0.338 |
| GACCAAUCUGCCCUCAGAGCUCGAGAACAUCUUCGGAUGCAGAGGAGGCAGGCUUCGGUGGCGCGAUAGCGCCAACGUCCUCAUCCUCCAAUGCAUUCCACCACAUGAUGAUGCCUGAAGAGCCUUGGUUUUUUG [A84U C97U] | -0.894 |
| GACCAAUCUGCCCUCAGAGCUCGAGAACAUCUUCGGAUGCAGAGGAGGCAGGCUUCGGUGGCGCGAUAGCGCCAACGUCCUCAACAUCCAAUGCAUCCCACCACCUGAUGAUGCCUGAAGAGCCUUGGUUUUUUG [C86A A105C] | -2.57 |
| GACCAAUCUGCCCUCAGAGCUCGAGAACAUCUUCGGAUGCAGAGGAGGCAGGCUUCGGUGGCGCGAUAGCGCCAACGUCCUCAAGCUCCAAUGCAUCCCACCACAUGAUGAUGCCUGAAGAGCCUUCGUUUUUUG [C85G G127C] | -2.56 |
| GACCAAUCUGCCCUCAGAGCUCGAGAACAUCUUCGGAUGCAGAGGAGGCAGGCUUCGGUGGCGCGAUAGCGCCAACGUCCUCAAUCUCCAAUGCAUCCCACCACAUGAUGACGCCUGAAGAGCCUUGGUUUUUUG [C85U U112C] | 1.15 |
| GACCAAUCUGCCCUCAGAGCUCGAGAACAUCUUCGGAUGCAGAGGAGGCAGGCUUCGGUGGCGCGAUAGCGCCAACGUCCUCAUCCUCCAAUGCAUCCCACCACAUGAUGAUGCCUGAAGAGCAUUGGUUUUUUG [A84U C124A] | 1.73 |
| GACCAAUCUGCCCUCAGAGCUCGAGAACAUCUUCGGAUGCAGAGGAGGCAGGCUUCGGUGGCGCGAUAGCGCCAACGUCCUCAAACUCCAAUGGAUCCCACCACAUGAUAAUGCCUGAAGAGCCUUGGUUUUUUG [C85A C94G G110A] | -3.12 |
| GACCAAUCUGCCCUCAGAGCUCGAGAACAUCUUCGGAUGCAGAGGAGGCAGGCUUCGGUGGCGCGAUAGCGCCAACGUCCUCAUCCUCCAAUGCAUCCCACCACAUGAUGAUGUCUGAAGAGCCUUGGUUUUUUG [A84U C114U] | -2.03 |
| GACCAAUCUGCCCUCAGAGCUCGAGAACAUCUUCGGAUGCAGAGGAGGCAGGCUUCGGUGGCGCGAUAGCGCCAACGUCCUCAAGCUCCAAUGCAUCCCACCACAUGGUGAUGCCUGAAGAGCCUUGGUUUUUUG [C85G A108G] | -3.15 |
| GACCAAUCUGCCCUCAGAGCUCGAGAACAUCUUCGGAUGCAGAGGAGGCAGGCUUCGGUGGCGCGAUAGCGCCAACGUCCUCAAGCUCCAAUGCAUCCCACCACAAGAUGAUGCCUGAAGAGCCUUGGUUUUUUG [C85G U106A] | -1.05 |
| GACCAAUCUGCCCUCAGAGCUCGAGAACAUCUUCGGAUGCAGAGGAGGCAGGCUUCGGUGGCGCGAUAGCGCCAACGUCCUCAAGCUCCAAUGCAUCCCACCACAUGAUGAUGGCUGAAGAGCCUUGGUUUUUUG [C85G C114G] | -3.82 |
| GACCAAUCUGCCCUCAGAGCUCGAGAACAUCUUCGGAUGCAGAGGAGGCAGGCUUCGGUGGCGCGAUAGCGCCAACGUCCUCAUCCUCCAAUGCAUCCCACCACAUGAUGAUGCCUGAAGAGCCUUGCUUUUUUG [A84U G128C] | -2.56 |
| GACCAAUCUGCCCUCAGAGCUCGAGAACAUCUUCGGAUGCAGAGGAGGCAGGCUUCGGUGGCGCGAUAGCGCCAACGUCCUCAGCCUCCAAUGCAUCCCACCACAUGAUGAUGCCGGAAGAGCCUUGGUUUUUUG [A84G U116G] | -2.89 |
| GACCAAUCUGCCCUCAGAGCUCGAGAACAUCUUCGGAUGCAGAGGAGGCAGGCUUCGGUGGCGCGAUAGCGCCAACGUCCUCAUCCUCCAAUGCAUCCCACCACCUGAUGAUGCCCGAAGAGCCUUGGUUUUUUG [A84U A105C U116C] | -5.74 |
| GACCAAUCUGCCCUCAGAGCUCGAGAACAUCUUCGGAUGCAGAGGAGGCAGGCUUCGGUGGCGCGAUAGCGCCAACGUCCUCAAACUCCAAUGCAUCCCACCACAUGAUGAUGCCUGAAGAGCAUGGGUUUUUUG [C85A C124A U126G] | -0.918 |
